Laboratory results published in PMC8589032 (Journal of molecular biology, 2018).
Numbering of substitutions follows the chain as printed. Numbers in names are those of the source.

B1: REV1 UBM1-UBM2 (C958S C977A) (domain or fragment, human, UniProt Q9UBZ9-1 933-1040, looked up)
chain: PSPSQLDQSVLEALPPDLREQVEQVSAVQQAESHGDKKKEPVNGANTGILPQPVGTVLLQIPEPQESNSDAGINLIALPAFSQVDPEVFAALPAELQRELKAAYDQRQ
B2: REV1 UBM1-UBM2 (residues 933-1040, wild-type) (domain or fragment, human, UniProt Q9UBZ9-1 933-1040, looked up)
chain: B1 chain with S26C, A45C

What was measured:
[1] = biological target: T1, ubiquitin (UniProt P0CG48 1-76); experiment: ITC
[2] = biological target: T1, ubiquitin; experiment: NMR titration

Row | Binder | Kd [1] [µM] | binding result [2]
1 | B1 | 18.7 ± 1.6 | 
2 | B2 |  | binds
3 | ESNSDAGINLIALPAFSQVDPEVFAALPAELQRELKAAYDQRQ (domain or fragment, human, UniProt Q9UBZ9-1 998-1040, looked up) [REV1 UBM2 (residues E998 to Q1040)] | 14.9 ± 3 | 
